# Reference: patent US20220372147A1 (UNIVERSIT T STUTTGART, published 2022)
# Like-named read-outs stand apart in the source and are kept apart here.
# T1: FcεRI Fc fusion protein comprising the extracellular region of FcεRI (human, UniProt P12319 26-205)
# T1 construct: extracellular domain; also called FcεRT; FccRT; not shown: Fc part
# T1 sequence (looked up): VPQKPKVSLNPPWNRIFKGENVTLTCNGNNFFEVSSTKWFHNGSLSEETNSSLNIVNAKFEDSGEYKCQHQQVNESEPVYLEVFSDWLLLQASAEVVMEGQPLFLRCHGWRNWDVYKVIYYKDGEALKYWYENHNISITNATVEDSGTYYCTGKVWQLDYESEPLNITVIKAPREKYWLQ
# Key:
# [1] = target: T1, FcεRI Fc fusion protein comprising the …; experiment: ELISA, immobilized FcεRI-Fc, anti-human Fab detection
# [2] = target: T2, CD3 on CD3-expressing Jurkat cells (human, UniProt P07766 23-207); experiment: flow cytometry on CD3-expressing Jurkat cells, PE anti-human Fc
# T2 construct: whole, on cells
# [3] = target: T3, HER3 on HER3-expressing cancer cells (LIM1215, BT474) (UniProt P21860 20-1342, limits assumed); experiment: flow cytometry on HER3-expressing LIM1215 cells, PE anti-human Fc
# T3 construct: whole, on cells; also called HER3-expressing LIM1215 cells; HER3-expressing BT474 cells
# [4] = target: T3, HER3 on HER3-expressing cancer cells …; experiment: flow cytometry on HER3-expressing LIM1215 and BT474 cells
# [5] = target: T4, His-tagged HER3 protein, extracellular domain (ECD) of HER3 (aa 21-643) (UniProt P21860 21-643); experiment: ELISA, immobilized HER3-His, anti-human Fc-HRP detection
# T4 construct: range 21-643; also called HER3-His; not shown: His-tag
# [6] = target: T3, HER3 on HER3-expressing cancer cells …; experiment: flow cytometry on HER3-expressing LIM1215 cells, PE anti-human Fc; remark: listed apart in the source
# [7] = target: T3, HER3 on HER3-expressing cancer cells …; experiment: flow cytometry on HER3-expressing BT474 cells, PE anti-human Fc
# [8] = target: T3, HER3 on HER3-expressing cancer cells …; experiment: cell-based or functional assay
# [9] = target: T2, CD3 on CD3-expressing Jurkat cells; experiment: flow cytometry on CD3-expressing Jurkat cells, PE anti-human Fc; remark: listed apart in the source
# [10] = target: T3, HER3 on HER3-expressing cancer cells …; experiment: cell-based or functional assay; remark: listed apart in the source
# [11] = target: T5, Flag-tagged FAP protein, extracellular domain of FAP (aa 32-728) (UniProt Q12884 32-728); experiment: ELISA, immobilized FAP-Flag, anti-human Fc-HRP detection
# T5 construct: range 32-728; also called FAP-Flag; not shown: Flag-tag
# EGFR-Fc = target: T6, EGFR-Fc (UniProt P00533 25-645); experiment: bifunctional sandwich ELISA: immobilized EGFR-Fc, titrated eIg-Fab, then HER3-His as second antigen detected with anti-His-HRP
# T6 construct: also called immobilized EGFR-Fc antigen; not shown: Fc part
# [12] = target: T4, His-tagged HER3 protein, extracellular …; experiment: ELISA, immobilized HER3-His, anti-human Fc-HRP detection; remark: listed apart in the source
# [13] = target: T4, His-tagged HER3 protein, extracellular …; experiment: ELISA, immobilized HER3-His, anti-human Fab-HRP detection
# [14] = target: EGFR (immobilized control antigen of Example 11) (UniProt P00533 25-645, limits assumed); experiment: ELISA at 50 nM, immobilized EGFR, anti-human Fab detection
# [15] = target: T4, His-tagged HER3 protein, extracellular …; experiment: bifunctional sandwich ELISA: immobilized HER3-His, titrated Fab-eFab, then EGFR-moFc as second antigen detected with anti-mouse Fc-HRP
# EGFR-moFc = target: T7, EGFR-moFc (UniProt P00533 25-645); experiment: bifunctional sandwich ELISA: immobilized HER3-His, EGFR-moFc detected with anti-mouse Fc-HRP
# T7 construct: also called EGFR-moFc protein (second soluble antigen); not shown: murine Fc part
# T2 sequence (P07766 23-207): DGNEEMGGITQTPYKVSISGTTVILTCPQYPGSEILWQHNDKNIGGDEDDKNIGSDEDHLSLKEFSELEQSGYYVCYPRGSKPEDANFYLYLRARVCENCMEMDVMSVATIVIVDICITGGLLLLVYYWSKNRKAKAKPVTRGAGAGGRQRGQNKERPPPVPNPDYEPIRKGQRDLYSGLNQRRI
# T5 sequence (Q12884 32-728 limits assumed): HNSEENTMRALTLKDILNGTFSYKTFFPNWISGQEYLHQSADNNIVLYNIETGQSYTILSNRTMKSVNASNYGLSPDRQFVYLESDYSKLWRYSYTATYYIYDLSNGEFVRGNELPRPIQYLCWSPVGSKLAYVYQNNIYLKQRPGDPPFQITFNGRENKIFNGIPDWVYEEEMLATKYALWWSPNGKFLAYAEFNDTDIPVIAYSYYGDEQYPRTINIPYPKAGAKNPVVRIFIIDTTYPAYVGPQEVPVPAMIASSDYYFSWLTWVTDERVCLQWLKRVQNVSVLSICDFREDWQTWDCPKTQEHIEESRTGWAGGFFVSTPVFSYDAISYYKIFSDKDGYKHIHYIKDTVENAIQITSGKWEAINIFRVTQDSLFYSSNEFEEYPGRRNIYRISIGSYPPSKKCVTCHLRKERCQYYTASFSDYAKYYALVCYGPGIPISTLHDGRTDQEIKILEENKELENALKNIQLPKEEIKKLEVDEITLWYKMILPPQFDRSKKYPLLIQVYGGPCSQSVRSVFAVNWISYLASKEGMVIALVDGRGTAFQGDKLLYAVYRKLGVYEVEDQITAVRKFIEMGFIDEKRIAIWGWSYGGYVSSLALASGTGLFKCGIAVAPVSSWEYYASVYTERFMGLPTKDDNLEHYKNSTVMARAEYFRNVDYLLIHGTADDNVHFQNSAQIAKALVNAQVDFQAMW
Binder,binding result [1],EC50 [2] [nM],EC50 [5] [nM],EC50 [6] [nM],EC50 [7] [nM],"EC50 value in cell killing (PBMC-mediated cytotoxicity on BT-474 cells, crystal violet) [8] [nM]","EC50 value in cell killing (PBMC-mediated cytotoxicity on LIM1215 cells, crystal violet) [8] [nM]",also measured
"bispecific and bivalent anti-CD3 x anti-HER3 eIgG (bispecific antibody, One site for HER3 (3-43), one for CD3 (huU3, humanized UCHT1); also called eIg1; eIgl) light 1: QAGLTQPPAVSVAPGQTASITCGRDNIGSRSVHWYQQKPGQAPVLVVYDDSDRPAGIPERFSGSNYENTATLTISRVEAGDEADYYCQVWGITSDHVVFGGGTKLTVLGQPKAAPSVTLFPPSSEELQANKATLVCLISDFYPGAVTVAWKADSSPVKAGVETTTPSKQSNNKYAASSYLSLTPEQWKSHRSYSCQVTHEGSTVEKTVAPTECS heavy 1: not shown heavy 2: not shown light 2: not shown",no binding (tested: 50 nM),5.1,2.1,4,4.8,3.8,5.8,"EC50 [3]: 0.4 nM; factor weaker binding than the bispecific, trivalent eIg-Fab molecules [4]: ≤ 50 fold; EC50 [9]: 11.9 nM"
"bispecific, trivalent eIg-Fab3 targeting HER3 and CD3 (bispecific antibody) light 1: QAGLTQPPAVSVAPGQTASITCGRDNIGSRSVHWYQQKPGQAPVLVVYDDSDRPAGIPERFSGSNYENTATLTISRVEAGDEADYYCQVWGITSDHVVFGGGTKLTVLGQPKAAPSVTLFPPSSEELQANKATLVCLISDFYPGAVTVAWKADSSPVKAGVETTTPSKQSNNKYAASSYLSLTPEQWKSHRSYSCQVTHEGSTVEKTVAPTECS light 2: not shown heavy 1: QVQLVQSGAEVKKPGSSVKVSCKASGGTFSGYTMNWVRQAPGQGLEWMGLINPYKGVSTYNGKFKDRVTITADKSTSTAYMELSSLRSEDTAVYYCARSGYYGDSDWYFDVWGQGTLVTVSSDFTPPTVKILQSSCDGGGHFPPTIQLLCLVSGYTPGTINITWLEDGQVMDVDLSTASTTQEGELASTQSELTLSQKHWLSDRTYTCQVTYQGHTFEDSTKKSADSNGGSGGGGSGGQVQLQQSGPGLVKPSQTLSLTCAISGDSVSSNRAAWNWIRQSPSRGLEWLGRTYYRSKWYNDYAQSLKSRITINPDTPKNQFSLQLNSVTPEDTAVYYCARDGQLGLDALDIWGQGTMVTVSSASTKGPSVFPLAPSSKSTSGGTAALGCLVKDYFPEPVTVSWNSGALTSGVHTFPAVLQSSGLYSLSSVVTVPSSSLGTQTYICNVNHKPSNTKVDKKVEPKSCGTDKTHTCPPCPAPPVAGPSVFLFPPKPKDTLMISRTPEVTCVVVDVSHEDPEVKFNWYVDGVEVHNAKTKPREEQYNSTYRVVSVLTVLHQDWLNGKEYKCKVSNKGLPSSIEKTISKAKGQPREPQVYTLPPCRDELTKNQVSLWCLVKGFYPSDIAVEWESNGQPENNYKTTPPVLDSDGSFFLYSKLTVDKSRWQQGNVFSCSVMHEALHNHYTQKSLSLSPGK heavy 2: QVQLQQSGPGLVKPSQTLSLTCAISGDSVSSNRAAWNWIRQSPSRGLEWLGRTYYRSKWYNDYAQSLKSRITINPDTPKNQFSLQLNSVTPEDTAVYYCARDGQLGLDALDIWGQGTMVTVSSASTKGPSVFPLAPSSKSTSGGTAALGCLVKDYFPEPVTVSWNSGALTSGVHTFPAVLQSSGLYSLSSVVTVPSSSLGTQTYICNVNHKPSNTKVDKKVEPKSCGTDKTHTCPPCPAPPVAGPSVFLFPPKPKDTLMISRTPEVTCVVVDVSHEDPEVKFNWYVDGVEVHNAKTKPREEQYNSTYRVVSVLTVLHQDWLNGKEYKCKVSNKGLPSSIEKTISKAKGQPREPQVCTLPPSRDELTKNQVSLSCAVKGFYPSDIAVEWESNGQPENNYKTTPPVLDSDGSFFLVSKLTVDKSRWQQGNVFSCSVMHEALHNHYTQKSLSLSPGK",,1.1,,0.4,0.2,0.5,0.4,potency in cell killing relative to eIg-Fab4 [10]: ~4 fold
"bivalent and bispecific eIg molecule targeting HER3 and FAP (bispecific antibody, Four different polypeptide chains; one site for HER3, one for FAP; also called eIg antibody targeting HER3 and FAP) light 1: QAGLTQPPAVSVAPGQTASITCGRDNIGSRSVHWYQQKPGQAPVLVVYDDSDRPAGIPERFSGSNYENTATLTISRVEAGDEADYYCQVWGITSDHVVFGGGTKLTVLGQPKAAPSVTLFPPSSEELQANKATLVCLISDFYPGAVTVAWKADSSPVKAGVETTTPSKQSNNKYAASSYLSLTPEQWKSHRSYSCQVTHEGSTVEKTVAPTECS heavy 1: not shown light 2: DIQMTQSPSSLSASVGDRVTITCRASKSVSTSAYSYMHWYQQKPGKAPKLLIYLASNLESGVPSRFSGSGSGTDFTLTISSLQPEDFATYYCQHSRELPYTFGQGTKLEIKRDFTPPTVKILQSSSDGGGHFPPTIQLLCLVSGYTPGTIQITWLEDGQVMDVDLSTASTTQEGELASTQSELTLSQKHWLSDRTYTCQVTYQGHTFEDSTKKCADSN heavy 2: not shown",,,3.4,,,,,EC50 [11]: 7.6 nM
"tetravalent and bispecific eIg-Fab molecule targeting HER3 and EGFR (bispecific antibody, Homodimerizing Fc; also called eIg-Fab EGFRxHER3) light 1: QAGLTQPPAVSVAPGQTASITCGRDNIGSRSVHWYQQKPGQAPVLVVYDDSDRPAGIPERFSGSNYENTATLTISRVEAGDEADYYCQVWGITSDHVVFGGGTKLTVLGTDFTPPTVKILQSSSDGGGHFPPTIQLLCLVSGYTPGTIQITWLEDGQVMDVDLSTASTTQEGELASTQSELTLSQKHWLSDRTYTCQVTYQGHTFEDSTKKCADSN light 2: DIQLTQSPSFLSASVGDRVTITCRASQSIGTNIHWYQQKPGKAPKLLIKYASESISGVPSRFSGSGSGTEFTLTISSLQPEDFATYYCQQNNNWPTTFGAGTKLEIKRTVAAPSVFIFPPSDEQLKSGTASVVCLLNNFYPREAKVQWKVDNALQSGNSQESVTEQDSKDSTYSLSSTLTLSKADYEKHKVYACEVTHQGLSSPVTKSFNRGEC heavy: not shown",no binding (tested: 50 nM),,,,,,,EC50 (EGFR-Fc): 0.23 nM; EC50 [12]: 3.3 nM
"bivalent and bispecific Fab-eFab molecule targeting HER3 and EGFR (bispecific antibody, No Fc region; one site for EGFR and one for HER3; C-terminal His-tag on the heavy chain; also called Fab-eFab EGFRxHER3) light 1: QAGLTQPPAVSVAPGQTASITCGRDNIGSRSVHWYQQKPGQAPVLVVYDDSDRPAGIPERFSGSNYENTATLTISRVEAGDEADYYCQVWGITSDHVVFGGGTKLTVLGTDFTPPTVKILQSSSDGGGHFPPTIQLLCLVSGYTPGTIQITWLEDGQVMDVDLSTASTTQEGELASTQSELTLSQKHWLSDRTYTCQVTYQGHTFEDSTKKCADSN light 2: DIQLTQSPSFLSASVGDRVTITCRASQSIGTNIHWYQQKPGKAPKLLIKYASESISGVPSRFSGSGSGTEFTLTISSLQPEDFATYYCQQNNNWPTTFGAGTKLEIKRTVAAPSVFIFPPSDEQLKSGTASVVCLLNNFYPREAKVQWKVDNALQSGNSQESVTEQDSKDSTYSLSSTLTLSKADYEKHKVYACEVTHQGLSSPVTKSFNRGEC heavy: EVQLVESGGGLVQPGGSLRLSCAASGFSLTNYGVHWVRQAPGKGLEWLGVIWSGGNTDYNTPFTSRFTISRDNSKNTLYLQMNSLRAEDTAVYYCARALTYYDYEFAYWGQGTTVTVSSASTKGPSVFPLAPSSKSTSGGTAALGCLVKDYFPEPVTVSWNSGALTSGVHTFPAVLQSSGLYSLSSVVTVPSSSLGTQTYICNVNHKPSNTKVDKKVEPKSCGGSGGGGSGGQVQLQQSGPGLVKPSQTLSLTCAISGDSVSSNRAAWNWIRQSPSRGLEWLGRTYYRSKWYNDYAQSLKSRITINPDTPKNQFSLQLNSVTPEDTAVYYCARDGQLGLDALDIWGQGTMVTVSSDFTPPTVKILQSSCDGGGHFPPTIQLLCLVSGYTPGTINITWLEDGQVMDVDLSTASTTQEGELASTQSELTLSQKHWLSDRTYTCQVTYQGHTFEDSTKKSADSNAAAHHHHHH",no binding (tested: 50 nM),,,,,,,EC50 [13]: 3.9 nM; binding result [14]: binds; EC50 [15]: 1.4 nM; binding result (EGFR-moFc): binds
